According to patent publication US20170129961A1 (Amgen, published 2017):
Substitutions are numbered along the chain they refer to.

T1: human CD70 (human, UniProt P32970 1-193)
T1 construct: also called hu CD70; CD27L
T1 sequence: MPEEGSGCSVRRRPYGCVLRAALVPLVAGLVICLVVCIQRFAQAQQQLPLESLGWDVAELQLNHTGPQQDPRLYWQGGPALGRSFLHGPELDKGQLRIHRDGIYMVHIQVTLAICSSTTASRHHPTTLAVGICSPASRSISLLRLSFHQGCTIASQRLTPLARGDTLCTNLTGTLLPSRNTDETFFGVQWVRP

T2: full-length mouse CD70 with C-terminal V5 tag (mouse, UniProt O55237 1-195)
T2 construct: On transfected CHO cells; also called murine CD70
T2 sequence: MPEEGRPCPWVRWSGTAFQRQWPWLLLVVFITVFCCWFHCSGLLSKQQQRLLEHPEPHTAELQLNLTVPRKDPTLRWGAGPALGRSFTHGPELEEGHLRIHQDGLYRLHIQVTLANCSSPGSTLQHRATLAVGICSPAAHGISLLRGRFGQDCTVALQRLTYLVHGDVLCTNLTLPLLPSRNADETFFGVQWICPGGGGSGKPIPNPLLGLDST

T3: full length human CD70 with C-terminal V5 tag (human, UniProt P32970 1-193)
T3 construct: On transfected CHO cells; also called huCD70-V5
T3 sequence: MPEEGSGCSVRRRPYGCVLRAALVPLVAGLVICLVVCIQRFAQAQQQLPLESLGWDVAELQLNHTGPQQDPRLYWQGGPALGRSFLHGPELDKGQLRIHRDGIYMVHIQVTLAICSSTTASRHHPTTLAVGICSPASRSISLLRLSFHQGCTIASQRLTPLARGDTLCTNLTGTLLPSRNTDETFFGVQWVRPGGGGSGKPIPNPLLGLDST

B1: CD70-64 (scFv)
scFv: EVQLLESGGGLVQPGGSLRLSCAASGFTFSVYAMSWVRQAPGKCLEWVSTISDSGGSTFYADSVKGRFTISRDNSKNTLYLQMNRLRAEDTAVYYCARHDYSNYAYFDYWGQGTLVTVSSGGGGSGGGGSGGGGSEIVLTQSPGTLSLSPGERATLSCRASQSVRSSYLAWYQQKPGQAPRLLIYGASSRATGIPDRFSGSGSGTDFTLTISRLEPEDFAVYYCQQYGDLPFTFGCGTKVEIK
notes: As m32
B2: CD70-62 (scFv)
scFv: EVQLVESGGGLVKPGGSLRLSCAASGFTFSSYSMNWVRQAPGKGLEWVSYISSSGGYIYYADSVKGRFTISRDNAKNSLYLQMNSLRAEDAAVYYCSRGDYSNYAYFDYWGQGTLVTVSSGGGGSGGGGSGGGGSDIQMTQSPSSLSASVGDRVTITCRASQGISNYLAWYQQKPGKVPKLLIYAASTLQSGVPSRFSGSGSGTDFTLTISSLQAEDVAVYYCQQYYSTPLTFGGGTKVEIK
notes: As m32
B3: CD70-73 (scFv)
scFv: B2 scFv with G44C, G235C
notes: As m32
B4: CD70-63 (scFv)
scFv: EVQLVESGGGLVKPGGSLRLSCAASGITFSTYTMNWVRQAPGKGLEWVSSISSSSGYIYYADSVKGRFTISRDNAKNSLYLQMNSLRAEDTAVYYCARGDYSNYLYFDLWGRGTLVTVSSGGGGSGGGGSGGGGSEIVLTQSPGTLSLSPGERATLSCRASQSFRSSYLAWYQQKPGQAPRLLIHGASSRATGIPDRFSGSGSGTDFTLTISRLEPEDFAVYYCQLYGSLPITFGQGTRLEIK
B5: CD70-56 (scFv)
scFv: QVQLVESGGGVVQPGRSLRLSCAASGFTFSSYGMHWVRQAPGKGLEWVAVISYDGSNKYYADSVKGRFTISRDNSKNTLYLQMNSLRAEDTAVYYCARGRYYGSGSYNYGMDVWGQGTTVTVSSGGGGSGGGGSGGGGSDIQMTQSPSSLSASVGDRVTITCRASQSIFDYLNWYQQKPGKAPKLLIYAASSLQSGVPSRFSGSGFGTDFTLTISSLQPEDFATYYCQQSYSTPLTFGGGTKLEIK
notes: As m32
B6: CD70-71 (scFv)
scFv: B5 scFv with G44C, G239C
notes: As m32

What follows are binders tested against T1, human CD70 (assay: FACS on CHO cells, periplasmic scFv).
Method: (§1) All antibodies were diluted in PBS/1.5% FCS. As negative control, cells were incubated with PBS/2% FCS instead of the periplasmic extract. The samples were measured by flow cytometry.

Binding result, binds:
B1
B2
B3
B4
B5
B6

Each binder was assayed against T2, full-length mouse CD70 with C-terminal … (assay: FACS on CHO cells, periplasmic scFv).
Method: as §1

Binding result, no binding:
B1
B2
B3
B4
B5
B6

What follows are binders tested against T3, full length human CD70 with C-terminal … (assay: FACS on CHO cells, periplasmic scFv).
Method: as §1

Binding result, no binding:
B5
B6
